Laboratory results published in patent US20210246166A1 (Bayer, published 2021).
Numbered stars: 1 amine (or outer) side, 2 acyl side, 3 side chain; on linkers, the order of the positions; unused ones are H or OH. Bridge positions count the residues as written; N and C are the ends. Square brackets hold non-standard residues; d marks the D form. Ends that are not written are not given here. Pro(3S,4R-methano) = O=C(O)[C@H]1NC[C@@H]2C[C@@H]21; cPrCO(1-aminomethyl) = O=C(C1(CN[*:1])CC1)[*:2]; Oic = O=C(O)[C@@H]1C[C@@H]2CCCC[C@@H]2N1; Phe(2-Br) = N[C@@H](Cc1ccccc1Br)C(=O)O; PEG6 = NCCOCCOCCOCCOCCOCCOCCC(=O)O; NMeI = CC[C@H](C)[C@H](NC)C(=O)O; tBuAla = CC(C)(C)C[C@H](N)C(=O)O; Pen = CC(C)(S)[C@H](N)C(=O)O; NMeC = CN[C@@H](CS)C(=O)O; PEG3 = NCCOCCOCCOCCC(=O)O; Nle = CCCC[C@H](N)C(=O)O; Orn = NCCC[C@H](N)C(=O)O; Sar = CNCC(=O)O

T1: recombinant human MASP1 active protease (amino acids 297-699, C-terminal His Tag) (human, UniProt P48740 297-699)
T1 sequence: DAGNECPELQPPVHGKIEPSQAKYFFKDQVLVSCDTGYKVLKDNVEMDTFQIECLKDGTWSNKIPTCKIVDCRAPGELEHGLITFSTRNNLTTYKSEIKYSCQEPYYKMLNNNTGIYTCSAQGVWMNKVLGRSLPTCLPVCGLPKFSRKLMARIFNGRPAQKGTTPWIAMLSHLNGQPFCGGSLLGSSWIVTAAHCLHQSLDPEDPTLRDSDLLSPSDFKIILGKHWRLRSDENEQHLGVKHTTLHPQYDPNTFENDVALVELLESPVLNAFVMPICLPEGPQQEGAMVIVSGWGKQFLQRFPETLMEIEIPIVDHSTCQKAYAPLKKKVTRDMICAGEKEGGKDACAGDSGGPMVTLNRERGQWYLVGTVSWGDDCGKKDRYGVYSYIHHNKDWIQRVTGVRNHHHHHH


How the values were obtained:
[1] = biological target: T1, recombinant human MASP1 active protease …; assay: cell-based or functional assay
[2] = biological target: recombinant human MASP2 active protease (amino acids 297-686, C-terminal His Tag) (human, UniProt O00187 297-686); assay: cell-based or functional assay
Chain of recombinant human MASP2 active protease (amino acids 297-686, C-terminal His Tag) (O00187 other isoform, or with tags, fused parts or gaps limits assumed): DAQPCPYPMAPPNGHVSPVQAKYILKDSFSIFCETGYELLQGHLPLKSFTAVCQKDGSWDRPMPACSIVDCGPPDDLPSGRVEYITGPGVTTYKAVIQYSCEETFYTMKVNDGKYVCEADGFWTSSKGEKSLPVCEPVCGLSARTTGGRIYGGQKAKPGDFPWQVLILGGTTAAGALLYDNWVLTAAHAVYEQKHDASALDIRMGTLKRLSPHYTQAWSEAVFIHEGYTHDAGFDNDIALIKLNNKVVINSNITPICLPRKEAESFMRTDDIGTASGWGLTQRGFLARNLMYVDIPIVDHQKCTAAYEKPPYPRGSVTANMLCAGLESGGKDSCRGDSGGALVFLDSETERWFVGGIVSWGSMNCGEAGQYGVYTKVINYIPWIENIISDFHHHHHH

Row | Binder | human MASP1 IC50 [1] | human MASP2 IC50 [2]
1 | AICSRS[tBuAla]PPI[NMeC]IPD-OH (disulfide 3-11; N-terminus assumed; SMILES CC[C@H](C)[C@H](NC(=O)[C@H](C)N)C(=O)N[C@H]1CSSC[C@@H](C(=O)N[C@H](C(=O)N2CCC[C@H]2C(=O)N[C@@H](CC(=O)O)C(=O)O)[C@@H](C)CC)N(C)C(=O)[C@H]([C@@H](C)CC)NC(=O)[C@@H]2CCCN2C(=O)[C@@H]2CCCN2C(=O)[C@H](CC(C)(C)C)NC(=O)[C@H](CO)NC(=O)[C@H](CCCNC(=N)N)NC(=O)[C@H](CO)NC1=O) [AIC+SRS-((tBu)A)-PPI-((N-Me)C)+IPD-OH] | 2.45 nM | 185 nM
2 | AICSRS[tBuAla]P[Oic]ICIPD-NH2 (disulfide 3-11; also: HCl salt) [AIC+SRS-((tBu)A)-P-(Oic)-IC+IPD-NH2 (HCl salt)] | 2.5 nM | 190 nM
3 | [Sar]ICSRS[tBuAla]PPI[Pen]IP[PEG6]-NH2 (disulfide 3-11; N-terminus assumed; SMILES CC[C@H](C)[C@H](NC(=O)CNC)C(=O)N[C@H]1CSSC(C)(C)[C@@H](C(=O)N[C@H](C(=O)N2CCC[C@H]2C(=O)NCCOCCOCCOCCOCCOCCOCCC(N)=O)[C@@H](C)CC)NC(=O)[C@H]([C@@H](C)CC)NC(=O)[C@@H]2CCCN2C(=O)[C@@H]2CCCN2C(=O)[C@H](CC(C)(C)C)NC(=O)[C@H](CO)NC(=O)[C@H](CCCNC(=N)N)NC(=O)[C@H](CO)NC1=O) [((N-Me)G)-IC+SRS-((tBu)A)-PPI-(Pen)+IP-(PEG5(22 atoms))-NH2] | 2.5 nM | 48 nM
4 | [Sar]ICSRSL[Pro(3S,4R-methano)]PI[Pen]IPE-NH2 (disulfide 3-11; N-terminus assumed; SMILES CC[C@H](C)[C@H](NC(=O)CNC)C(=O)N[C@H]1CSSC(C)(C)[C@@H](C(=O)N[C@H](C(=O)N2CCC[C@H]2C(=O)N[C@@H](CCC(=O)O)C(N)=O)[C@@H](C)CC)NC(=O)[C@H]([C@@H](C)CC)NC(=O)[C@@H]2CCCN2C(=O)[C@@H]2[C@H]3C[C@H]3CN2C(=O)[C@H](CC(C)C)NC(=O)[C@H](CO)NC(=O)[C@H](CCCNC(=N)N)NC(=O)[C@H](CO)NC1=O) [((N-Me)G)-IC+SRSL-((1S,2S,5R)-3-azabicyclo[3.1.0]hexane-2-carboxylic acid)-PI-(Pen)+IPE-NH2] | 2.5 nM | 70 nM
5 | [Orn]ICSRS[tBuAla]PPI[NMeC]I-NH2 (disulfide 3-11; N-terminus assumed; SMILES CC[C@H](C)[C@H](NC(=O)[C@@H]1CSSC[C@H](NC(=O)[C@@H](NC(=O)[C@@H](N)CCCN)[C@@H](C)CC)C(=O)N[C@@H](CO)C(=O)N[C@@H](CCCNC(=N)N)C(=O)N[C@@H](CO)C(=O)N[C@@H](CC(C)(C)C)C(=O)N2CCC[C@H]2C(=O)N2CCC[C@H]2C(=O)N[C@@H]([C@@H](C)CC)C(=O)N1C)C(N)=O) [(Orn)-IC+SRS-((tBu)A)-PPI-((N-Me)C)+I-NH2] | 2.6 nM | 130 nM
6 | [cPrCO(1-aminomethyl)]ICSRS[tBuAla]PPI[NMeC]I-NH2 (disulfide 3-11; N-terminus assumed; SMILES CC[C@H](C)[C@H](NC(=O)[C@@H]1CSSC[C@H](NC(=O)[C@@H](NC(=O)C2(CN)CC2)[C@@H](C)CC)C(=O)N[C@@H](CO)C(=O)N[C@@H](CCCNC(=N)N)C(=O)N[C@@H](CO)C(=O)N[C@@H](CC(C)(C)C)C(=O)N2CCC[C@H]2C(=O)N2CCC[C@H]2C(=O)N[C@@H]([C@@H](C)CC)C(=O)N1C)C(N)=O) [(ACMP)-IC+SRS-((tBu)A)-PPI-((N-Me)C)+I-NH2] | 2.6 nM | 360 nM
7 | [Sar]ICSRSLP[Oic]I[Pen]IP[PEG3]-NH2 (disulfide 3-11; N-terminus assumed; SMILES CC[C@H](C)[C@H](NC(=O)CNC)C(=O)N[C@H]1CSSC(C)(C)[C@@H](C(=O)N[C@H](C(=O)N2CCC[C@H]2C(=O)NCCOCCOCCOCCC(N)=O)[C@@H](C)CC)NC(=O)[C@H]([C@@H](C)CC)NC(=O)[C@@H]2C[C@@H]3CCCC[C@@H]3N2C(=O)[C@@H]2CCCN2C(=O)[C@H](CC(C)C)NC(=O)[C@H](CO)NC(=O)[C@H](CCCNC(=N)N)NC(=O)[C@H](CO)NC1=O) [((N-Me)G)-IC+SRSLP-(Oic)-I-(Pen)+IP-(PEG2(13 atoms))-NH2] | 1.1 nM | 23 nM
8 | [Nle]ICSRS[tBuAla]PPI[Pen]IPD-NH2 (disulfide 3-11; N-terminus assumed; SMILES CCCC[C@H](N)C(=O)N[C@H](C(=O)N[C@H]1CSSC(C)(C)[C@@H](C(=O)N[C@H](C(=O)N2CCC[C@H]2C(=O)N[C@@H](CC(=O)O)C(N)=O)[C@@H](C)CC)NC(=O)[C@H]([C@@H](C)CC)NC(=O)[C@@H]2CCCN2C(=O)[C@@H]2CCCN2C(=O)[C@H](CC(C)(C)C)NC(=O)[C@H](CO)NC(=O)[C@H](CCCNC(=N)N)NC(=O)[C@H](CO)NC1=O)[C@@H](C)CC) [(Nle)-IC+SRS-((tBu)A)-PPI-(Pen)+IPD-NH2] | 2.6 nM | 38 nM
9 | [dA]ICSRSLP[Oic]I[Pen]I-OH (disulfide 3-11; N-terminus assumed; SMILES CC[C@H](C)[C@H](NC(=O)[C@H]1NC(=O)[C@H]([C@@H](C)CC)NC(=O)[C@@H]2C[C@@H]3CCCC[C@@H]3N2C(=O)[C@@H]2CCCN2C(=O)[C@H](CC(C)C)NC(=O)[C@H](CO)NC(=O)[C@H](CCCNC(=N)N)NC(=O)[C@H](CO)NC(=O)[C@@H](NC(=O)[C@@H](NC(=O)[C@@H](C)N)[C@@H](C)CC)CSSC1(C)C)C(=O)O) [aIC+SRSLP-(Oic)-I-(Pen)+I-OH] | 2.6 nM | 92 nM
10 | AICSRS[tBuAla]PPI[Pen]IPD-NH2 (disulfide 3-11; N-terminus assumed; SMILES CC[C@H](C)[C@H](NC(=O)[C@H](C)N)C(=O)N[C@H]1CSSC(C)(C)[C@@H](C(=O)N[C@H](C(=O)N2CCC[C@H]2C(=O)N[C@@H](CC(=O)O)C(N)=O)[C@@H](C)CC)NC(=O)[C@H]([C@@H](C)CC)NC(=O)[C@@H]2CCCN2C(=O)[C@@H]2CCCN2C(=O)[C@H](CC(C)(C)C)NC(=O)[C@H](CO)NC(=O)[C@H](CCCNC(=N)N)NC(=O)[C@H](CO)NC1=O) [AIC+SRS-((tBu)A)-PPI-(Pen)+IPD-NH2] | 2.6 nM | 83 nM
11 | [Sar][NMeI]CSRS[tBuAla]PPI[Pen]I-NH2 (disulfide 3-11; N-terminus assumed; SMILES CC[C@H](C)[C@H](NC(=O)[C@H]1NC(=O)[C@H]([C@@H](C)CC)NC(=O)[C@@H]2CCCN2C(=O)[C@@H]2CCCN2C(=O)[C@H](CC(C)(C)C)NC(=O)[C@H](CO)NC(=O)[C@H](CCCNC(=N)N)NC(=O)[C@H](CO)NC(=O)[C@@H](NC(=O)[C@H]([C@@H](C)CC)N(C)C(=O)CNC)CSSC1(C)C)C(N)=O) [((N-Me)G)-((N-Me)I)-C+SRS-((tBu)A)-PPI-(Pen)+I-NH2] | 2.7 nM | 320 nM
12 | AICSRSLP[rel‑(1R,3R,5R,6R)‑6‑(Trifluoromethyl)‑2‑azabicyclo(3.1.0)hexane‑3‑carboxylic acid]ICIPD-NH2 (disulfide 3-11) | 2.8 nM | 2800 nM
13 | SICSRS[tBuAla]PPI[NMeC]I-NH2 (disulfide 3-11; N-terminus assumed; SMILES CC[C@H](C)[C@H](NC(=O)[C@@H]1CSSC[C@H](NC(=O)[C@@H](NC(=O)[C@@H](N)CO)[C@@H](C)CC)C(=O)N[C@@H](CO)C(=O)N[C@@H](CCCNC(=N)N)C(=O)N[C@@H](CO)C(=O)N[C@@H](CC(C)(C)C)C(=O)N2CCC[C@H]2C(=O)N2CCC[C@H]2C(=O)N[C@@H]([C@@H](C)CC)C(=O)N1C)C(N)=O) [SIC+SRS-((tBu)A)-PPI-((N-Me)C)+I-NH2] | 2.8 nM | 230 nM
14 | AICSRS[Phe(2-Br)]PPI[Pen]IPD-NH2 (disulfide 3-11; N-terminus assumed; SMILES CC[C@H](C)[C@H](NC(=O)[C@H](C)N)C(=O)N[C@H]1CSSC(C)(C)[C@@H](C(=O)N[C@H](C(=O)N2CCC[C@H]2C(=O)N[C@@H](CC(=O)O)C(N)=O)[C@@H](C)CC)NC(=O)[C@H]([C@@H](C)CC)NC(=O)[C@@H]2CCCN2C(=O)[C@@H]2CCCN2C(=O)[C@H](Cc2ccccc2Br)NC(=O)[C@H](CO)NC(=O)[C@H](CCCNC(=N)N)NC(=O)[C@H](CO)NC1=O) [AIC+SRS-((2-Bromo)F)-PPI-(Pen)+IPD-NH2] | 2.8 nM | 48 nM
15 | AICSRSLP[Oic]I[Pen]IPE-NH2 (disulfide 3-11; N-terminus assumed; SMILES CC[C@H](C)[C@H](NC(=O)[C@H](C)N)C(=O)N[C@H]1CSSC(C)(C)[C@@H](C(=O)N[C@H](C(=O)N2CCC[C@H]2C(=O)N[C@@H](CCC(=O)O)C(N)=O)[C@@H](C)CC)NC(=O)[C@H]([C@@H](C)CC)NC(=O)[C@@H]2C[C@@H]3CCCC[C@@H]3N2C(=O)[C@@H]2CCCN2C(=O)[C@H](CC(C)C)NC(=O)[C@H](CO)NC(=O)[C@H](CCCNC(=N)N)NC(=O)[C@H](CO)NC1=O) [AIC+SRSLP-(Oic)-I-(Pen)+IPE-NH2] | 2.8 nM | 150 nM
